These results are taken from doi:10.1101/2024.03.19.585775, “Septin filament assembly assist the lateral organization of membranes” (bioRxiv, 2024).

Several values for one entry are separate records, joined by “and”; a condition that tells them apart may be missing. Identical values can stand only once.

Series [1] deals with the molecule itself. Briefly: atomic force microscopy; octamers to filaments; 5 nM septin-GFP incubated overnight on 2.5% mol PI(4,5)P2 supported lipid bilayers; imaged at room temperature in 20 mM Tris-HCl pH 8, 2 mM MgCl2, 150 mM NaCl.
Series [2] concerns the molecule itself. Kind of series: negative-stain transmission electron microscopy; octamers to filaments; 100 nM (legend; methods: 0.005 mg/ml) GFP-tagged septin hetero-octamers on lipid monolayers of 77.5% Egg-PC, 20% Liver-PI, 2.5% Brain-PI(4,5)P2; 20 mM Tris-HCl pH 8, 2 mM MgCl2, 400 µM GTP, 150 mM NaCl; overnight at 4 °C; 2% uranyl acetate.

B1: wild-type septin-GFP hetero-octamer (Cdc11-Cdc12-Cdc3-Cdc10-Cdc10-Cdc3-Cdc12-Cdc11) (complex, S. cerevisiae)
chain 1: MSGIIDASSALRKRKHLKRGITFTVMIVGQSGSGRSTFINTLCGQQVVDTSTTILLPTDTSTEIDLQLREETVELEDDEGVKIQLNIIDTPGFGDSLDNSPSFEIISDYIRHQYDEILLEESRVRRNPRFKDGRVHCCLYLINPTGHGLKEIDVEFIRQLGSLVNIIPVISKSDSLTRDELKLNKKLIMEDIDRWNLPIYNFPFDEDEISDEDYETNMYLRTLLPFAIIGSNEVYEMGGDVGTIRGRKYPWGILDVEDSSISDFVILRNALLISHLHDLKNYTHEILYERYRTEALSGESVAAESIRPNLTKLNGSSSSSTTTRRNTNPFKQSNNINNDVLNPASDMHGQSTGENNETYMTREEQIRLEEERLKAFEERVQQELLLKRQELLQREKELREIEARLEKEAKIKQEE
chain 2: MSAATATAAPVPPPVGISNLPNQRYKIVNEEGGTFTVMLCGESGLGKTTFINTLFQTVLKRADGQQHRQEPIRKTVEIDITRALLEEKHFELRVNVIDTPGFGDNVNNNKAWQPLVDFIDDQHDSYMRQEQQPYRTKKFDLRVHAVLYFIRPTGHGLKPIDIETMKRLSTRANLIPVIAKADTLTAQELQQFKSRIRQVIEAQEIRIFTPPLDADSKEDAKSGSNPDSAAVEHARQLIEAMPFAIVGSEKKFDNGQGTQVVARKYPWGLVEIENDSHCDFRKLRALLLRTYLLDLISTTQEMHYETYRRLRLEGHENTGEGNEDFTLPAIAPARKLSHNPRYKEEENALKKYFTDQVKAEEQRFRQWEQNIVNERIRLNGDLEEIQGKVKKLEEQVKSLQVKKSHLK
chain 3: MSLKEEQVSIKQDPEQEERQHDQFNDVQIKQESQDHDGVDSQYTNGTQNDDSERFEAAESDVKVEPGLGMGITSSQSEKGQVLPDQPEIKFIRRQINGYVGFANLPKQWHRRSIKNGFSFNLLCVGPDGIGKTTLMKTLFNNDDIEANLVKDYEEELANDQEEEEGQGEGHENQSQEQRHKVKIKSYESVIEENGVKLNLNVIDTEGFGDFLNNDQKSWDPIIKEIDSRFDQYLDAENKINRHSINDKRIHACLYFIEPTGHYLKPLDLKFMQSVYEKCNLIPVIAKSDILTDEEILSFKKTIMNQLIQSNIELFKPPIYSNDDAENSHLSERLFSSLPYAVIGSNDIVENYSGNQVRGRSYPWGVIEVDNDNHSDFNLLKNLLIKQFMEELKERTSKILYENYRSSKLAKLGIKQDNSVFKEFDPISKQQEEKTLHEAKLAKLEIEMKTVFQQKVSEKEKKLQKSETELFARHKEMKEKLTKQLKALEDKKKQLELSINSASPNVNHSPVPTKKKGFLR
chain 4: MDPLSSVQPASYVGFDTITNQIEHRLLKKGFQFNIMVVGQSGLGKSTLINTLFASHLIDSATGDDISALPVTKTTEMKISTHTLVEDRVRLNINVIDTPGFGDFIDNSKAWEPIVKYIKEQHSQYLRKELTAQRERFITDTRVHAILYFLQPNGKELSRLDVEALKRLTEIANVIPVIGKSDTLTLDERTEFRELIQNEFEKYNFKIYPYDSEELTDEELELNRSVRSIIPFAVVGSENEIEINGETFRGRKTRWSAINVEDINQCDFVYLREFLIRTHLQDLIETTSYIHYEGFRARQLIALKENANSRSSAHMSSNAIQR
notes: Cdc11, septin of S. cerevisiae; Cdc12, septin of S. cerevisiae; Cdc3, septin of S. cerevisiae; Cdc10, septin of S. cerevisiae; Tag ends are read from the printed construct names MBP-Cdc12/(6xHis)Cdc3-GFP; The purified complex is named without MBP; also called GFP-tagged septin octamers; wild-type septin-GFP complexes; source: E. coli BL21 (DE3) Rosetta, co-expressed from two plasmids, purified …
For B1, the stoichiometry N – broadly, the number of molecules, sites or subunits per partner or assembly – in series [1] is 5 octamers; in series [2] it was 2 octamers and 3 octamers.

B2: septin-GFP hetero-octamer containing ΔAH-Cdc12 (C-terminal deletion of Cdc12 residues 390-407) (complex, S. cerevisiae)
chain 1: B1 chain 1
chain 2: MSAATATAAPVPPPVGISNLPNQRYKIVNEEGGTFTVMLCGESGLGKTTFINTLFQTVLKRADGQQHRQEPIRKTVEIDITRALLEEKHFELRVNVIDTPGFGDNVNNNKAWQPLVDFIDDQHDSYMRQEQQPYRTKKFDLRVHAVLYFIRPTGHGLKPIDIETMKRLSTRANLIPVIAKADTLTAQELQQFKSRIRQVIEAQEIRIFTPPLDADSKEDAKSGSNPDSAAVEHARQLIEAMPFAIVGSEKKFDNGQGTQVVARKYPWGLVEIENDSHCDFRKLRALLLRTYLLDLISTTQEMHYETYRRLRLEGHENTGEGNEDFTLPAIAPARKLSHNPRYKEEENALKKYFTDQVKAEEQRFRQWEQNIVNERIRLNGDLEEIQGKV
chain 3: B1 chain 3
chain 4: B1 chain 4
notes: Cdc11, septin of S. cerevisiae; Cdc12, septin of S. cerevisiae; Cdc3, septin of S. cerevisiae; Cdc10, septin of S. cerevisiae; also called ΔAH-Cdc12 mutant; ΔAH mutant; source: E. coli BL21 (DE3) Rosetta, co-expressed, purified (amylose resin, Ni-NTA-agarose), same protocol as wild type; not shown: GFP, C-terminal, kept; copies: 2 + 2 + 2 + 2
B2: the “stoichiometry N” value in series [2] is about 4 octamers.

B3: septin-GFP hetero-octamer containing ΔCTE-Cdc12 (deletion of the C-terminal extension of Cdc12, residues 339-407) (complex, S. cerevisiae)
chain 1: B1 chain 1
chain 2: MSAATATAAPVPPPVGISNLPNQRYKIVNEEGGTFTVMLCGESGLGKTTFINTLFQTVLKRADGQQHRQEPIRKTVEIDITRALLEEKHFELRVNVIDTPGFGDNVNNNKAWQPLVDFIDDQHDSYMRQEQQPYRTKKFDLRVHAVLYFIRPTGHGLKPIDIETMKRLSTRANLIPVIAKADTLTAQELQQFKSRIRQVIEAQEIRIFTPPLDADSKEDAKSGSNPDSAAVEHARQLIEAMPFAIVGSEKKFDNGQGTQVVARKYPWGLVEIENDSHCDFRKLRALLLRTYLLDLISTTQEMHYETYRRLRLEGHENTGEGNEDFTLPAIAPARKLSH
chain 3: B1 chain 3
chain 4: B1 chain 4
notes: Cdc11, septin of S. cerevisiae; Cdc12, septin of S. cerevisiae; Cdc3, septin of S. cerevisiae; Cdc10, septin of S. cerevisiae; also called ΔCTE-Cdc12 mutant; Cdc12 mutants; source: E. coli BL21 (DE3) Rosetta, co-expressed, purified (amylose resin, Ni-NTA-agarose), same protocol as wild type; not shown: GFP, C-terminal, kept; copies: 2 + 2 + 2 + 2
In the case of B3, the “stoichiometry N” value in series [2] was about 4 octamers.
